The labels stand for the following.
B1: L30H30 phage-displayed Fab (Fab, V domains shown)
VH: QVQLQESGPGLVKPSGTLSLTCAVSGGSISSSNWWSWVRQPPGKGLEWIGEIYHSGSTNYNPSLKSRVTISVDKSKNQFSLKLSSVTAADTAVYYCARVSGYYYYGMDVWGQGTTVTVSS
VL: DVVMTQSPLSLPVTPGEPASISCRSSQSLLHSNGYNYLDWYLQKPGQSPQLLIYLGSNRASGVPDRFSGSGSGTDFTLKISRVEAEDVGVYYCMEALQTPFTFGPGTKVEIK
B2: L37H37 phage-displayed Fab (Fab, V domains shown)
VH: B1 VH with Q1E, Q5V, V38I, V99D, G101S, Y102S, Y103W
VL: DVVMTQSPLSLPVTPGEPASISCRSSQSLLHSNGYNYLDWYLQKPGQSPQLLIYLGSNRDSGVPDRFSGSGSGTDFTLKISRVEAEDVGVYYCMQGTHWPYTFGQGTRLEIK
B3: L29H29 phage-displayed Fab (Fab, V domains shown)
VH: QVQLQESGPGLVKPSETLSLTCAVSGGSISSSNWWSWVRQPPGKGLEWIGEIYHSGSTNYNPSLKSRVTISVDKSKNQFSLKLSSVTAADTAVYYCARVGSGWYVDYWGQGTLVTVSS
VL: not shown
B4: L7H7 phage-displayed Fab (Fab, V domains shown)
VH: B3 VH with E16G, V99F, G100W, S101D, G102Y, W103Y, Y104G, V105M, Y107V, L113T
VL: not shown
B5: L10H10 phage-displayed Fab (Fab, V domains shown)
VH: EVQLVESGPGLVKPSGTLSLTCAVSGGSISSSNWWSWVRQPPGKGLEWIGEIYHSGSTNYNPSLKSRVTISVDKSKNQFSLKLSSVTAADTAVYYCARDYDIFGMDVWGQGTTVTVSS
VL: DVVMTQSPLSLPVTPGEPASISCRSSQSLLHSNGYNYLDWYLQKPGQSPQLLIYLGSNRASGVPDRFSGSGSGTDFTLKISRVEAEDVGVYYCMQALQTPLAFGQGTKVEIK
B6: L6H6 phage-displayed Fab (Fab, V domains shown)
VH: B3 VH with E16G, V99D, S101Q, G102L, W103D, Y104A, V105F, Y107I, L113M
VL: not shown
B7: L39H39 phage-displayed Fab (Fab, V domains shown)
VH: B5 VH with D99L, Y100S, D101F, I102A, F103D, G104P, M105F, V107I, T113M
VL: not shown
B8: L3H3 phage-displayed Fab (Fab, V domains shown)
VH: B3 VH with E16G, R98K, V99N, G100L, S101A, G102A, W103G, Y104A, D106A
VL: not shown
B9: L38H38 phage-displayed Fab (Fab, V domains shown)
VH: EVQLVESGPGLVKPSETLSLTCAVSGGSISSSNWWSWVRQPPGKGLEWIGEIYHSGSTNYNPSLKSRVTISVDKSKNQFSLKLSSVTAADTAVYYCARSTWSLDYWGQGTLVTVSS
VL: not shown
B10: L31H31 phage-displayed Fab (Fab, V domains shown)
VH: EVQLVQSGGGVVQPGRSLRLSCAASGFTFSSYGMHWVRQAPGKGLEWVAVISYDGSNKYYADSVKGRFTISRDNSKNTLYLQMNSLRAEDTAVYYCAKAYSSGWYDYYGMDVWGQGTTVTVSS
VL: DIQLTQSPSSLSASVGDRVTITCRSSQGIGYFLNWYQQEPGKAPKILISAASTLQSGVPSRFSGSGSGTDFTLSINNLQPADFATYYCQQSHSPPYTFGQGTKVEIK
B11: L25H25 phage-displayed Fab (Fab, V domains shown)
VH: QVQLQESGPGLVKPSGTLSLTCAVSGGSISSSNWWSWVRQPPGKGLEWIGEIYHSGSTNYNPSLKSRVTISVDKSKNQFSLKLSSVTAADTAVYYCASSGYDAFDIWGQGTTVTVSS
VL: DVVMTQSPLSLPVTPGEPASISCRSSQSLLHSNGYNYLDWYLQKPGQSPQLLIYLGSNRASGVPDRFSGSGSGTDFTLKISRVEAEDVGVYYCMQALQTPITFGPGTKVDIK
B12: L32H32 phage-displayed Fab (Fab, V domains shown)
VH: B11 VH with S98R, S99A, G100S, Y101V, T112M
VL: not shown
B13: L36H36 phage-displayed Fab (Fab, V domains shown)
VH: QVQLQQWGAGLLKPSETLSLTCAVYGGSFSGYYWSWIRQPPGKGLEWIGEINHSGSTNYNPSLKSRVTISVDTSKNQFSLKLSSVTAADTAVYYCARVGYSSGRDVDYWGQGTLVTVSS
VL: NFMLTQPHSVSESPGKTVTISCTRSSGSIASNYVQWYQQRPGSSPTTVIYEDNQRPSGVPDRFSGSIDSSSNSASLTISGLKTEDEADYYCQSYDSSNVVFGGGTKLTVL
B14: L14H14 phage-displayed Fab (Fab, V domains shown)
VH: QVQLQESGPGLVKPSGTLSLTCAVSGGSISSSNWWSWVRQPPGKGLEWIGEIYHSGSTNYNPSLKSRVTISVDKSKNQFSLKLSSVTAADTAVYYCARGLGDSSGYILWGQGTMVTVSS
VL: not shown
B15: L15H15 phage-displayed Fab (Fab, V domains shown)
VH: B14 VH
VL: DVVMTQSPLSLPVTPGEPASISCRSSQSLLHSNGYNYLDWYLQKPGQSPQLLIYLGSYRASGVPDRFSASGSGTDFTLKISRVEAEDVGVYYCMQALQTPITFGQGTRLEIK
B16: L33H33 phage-displayed Fab (Fab, V domains shown)
VH: B14 VH
VL: EIVLTQSPLSLPVTPGEPASISCRSSQSLLHSNGYNYLDWYLQKPGQSPQLLMYLVSNRASGVPERFSGSGSGTDFTLKISRVEAEDVGVYYCMQTLQTPLSFGQGTKLEIK
B17: L28H28 phage-displayed Fab (Fab, V domains shown)
VH: QVQLQESGPGLVKPSETLSLTCTVSGGSIRNYYWSWIRQPPGKGLEWIGYISDSGNTNYNPSLKSRVTISVDTSKNQFSLKLTSVTATDTAAYFCARHRSSWAWYFDLWGRGTLVTVSS
VL: SYVLTQPPSVSVSPGQTASITCSGDKLGDKYVGWYQQKAGQAPVLVIYQDNKRPSGIPERFSGSNSGNTASLTISGTQAMDEADYYCQAWDSGTVFGGGTKLTVL
B18: L34H34 phage-displayed Fab (Fab, V domains shown)
VH: QVQLQQSGPGLVKPSGTLSLTCAVSGGSISSSNWWSWVRQPPGKGLEWIGEIYHSGSTNYNPSLKSRVTISVDKSKNQFSLKLSSVTPEDTAVYYCARDHGPFDYWGRGTLVTVSS
VL: not shown
B19: L40H40 phage-displayed Fab (Fab, V domains shown)
VH: QVQLVQSGAEVKKPGSSVKVSCKASGGTFSSYAISWVRQAPGQGLEWMGRIIPILGIANYAQKFQGRVTITADKSTSTAYMELSSLRSEDTAVYYCAYGSGSYYDYYYMDVWGKGTTVTVSS
VL: ETTLTQSPATLSLSPGQRATLSCRASQSVYNYLAWYQQKPGQAPRLLIYDASRRATGIPARFSGSGSGTDFTLTISSLEPEDFAVYYCQQRNNWPLTFGGGTKVEIK
B20: L49H49 phage-displayed Fab (Fab, V domains shown)
VH: QVQLQQWGAGLLKPSETLSLTCAVYGGSFSGYYWSWIRQPPGKGLEWIGEINHSGSTNYNPSLKSRVTISVDTSKNQFSLKLSSVTAADTAVYYCARVGYSHGEEVLDVWGKGTTVTVSS
VL: NFMLTQPHSVSESPGKTVSISCTRNSGSIASNFVQWYQQRPGSAPTIVIYEDNQRPSAVPTRFSGSIDRSSNSASLTISGLTTEDEADYYCQSYDSANVIFGGGTKLTVL
B21: L27H27 phage-displayed Fab (Fab, V domains shown)
VH: EVQLVQSGGGVVQPGTSLRLSCAASGFSFRSHGMHWVRQAPGKGLEWVAVISYDGSNKYYADSVKGRFTISRDNSKNTLYLQMNSLRAEDTAVYYCATIGPGGFDYWGQGTLVTVSS
VL: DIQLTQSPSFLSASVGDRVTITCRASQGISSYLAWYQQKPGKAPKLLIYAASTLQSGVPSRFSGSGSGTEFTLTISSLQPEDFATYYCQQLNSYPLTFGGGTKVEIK

Changes are numbered by the printed parent chain.

In the first test the target is T1, hu INSR(ECD)-muIgG1Fc (human; mouse, Glycosylated. 87% of the preparation was cleaved between the alpha and beta chains (RKRR site), which stay disulfide-linked. Dimer through the receptor and the murine Fc.).
T1 construct: 87% processed into α and β chains; also called INSR(ECD)-muFc; INSR-mFc
Nature of the test: phage Fab ELISA, plate coated with INSR-mFc at 5 µg/ml. As for the experimental part:
(§1) In 96-well 2-ml deep-well blocks, 480 μl/well 2xYT-CG broth was inoculated with 20 μl of overnight cultures of the individual clones, then incubated at 37° C., 300 rpm for 3 hours. To each well, 50 μl of 1:3 diluted M13KO7 helper phage were added to infect the cells. The block was incubated at 37° C. without shaking for 30 minutes, and then shaken gently for another 30 minutes at 150 rpm. The block was centrifuged at 3600 rpm for 20 minutes to pellet the infected cells. The cell pellet in each well was suspended into 480 μl of 2xYT-CK (2xYT broth containing 100 μg/ml carbenicillin and 40 μg/ml kanamycin), and incubated at 30° C. overnight for about 20 hours. The cell debris was separated by centrifugation at 3600 rpm for 20 minutes. The rescued phage supernatant was used in the phage ELISA to check for IGF-1R-specific, INSR-cross reactive, or mouse Fc binding of individual clones.
(§2) The coated plates were washed 3× with 300 μl/well of PBS. The washed plates were blocked with 300 μl/well 2% MPBS at room temperature for one hour. Meanwhile, rescued phages of individual clones were pre-blocked by mixing 170 μl of rescued phage with 170 μl of 4% MPBS. The blocked plates were washed 5× with 300 μl/well TBST (TBS: 10 mM Tris-HCl, pH 7.5, 1 mM EDTA, 150 mM NaCl; Tween-20. 0.1%). 100 μl/well of pre-blocked phage dilutions were distributed to each set of coated plate, which were incubated at room temperature on a rocker for 90 minutes. The plates were washed 5× with 300 μl/well TBST. 100 μl/well of anti-M13-HRP in 2% MPBS (1:3000 dilution, catalog number 27-9421-01, Amersham Pharmacia Biotech) were distributed, and plates were incubated at room temperature on rocker for one hour. The plates were washed 5× with 300 μl/well TBST. 100 μl/well of the substrate 1-Step™ ABTS (Pierce Biotechnology, Rockford, Ill., catalog number 37615) were added. Plates were incubated for one hour. OD₄₀₅ was measured for signal detection.
For orientation: An ELISA detects its analyte on a solid surface through an enzyme-linked reagent.
Regarding B1, the binding result is reported as “no binding”.

B2: the binding result is given as “no binding”.

For the molecule B3, the binding result is listed as “no binding”.

With B4, the binding result is listed as “no binding”.

On to B5, for which the binding result was “no binding”.

Regarding B6, the binding result is on record as “no binding”.

For B7, the binding result is “no binding”.

B8: the binding result is on record as “no binding”.

Consider B9, for which the binding result is reported as “no binding”.

Turning to B10, the binding result is listed as “no binding”.

As for B11, the binding result was “no binding”.

As for B12, the binding result is given as “no binding”.

Regarding B13, the binding result is “no binding”.

B14: the binding result was “no binding”.

Regarding B15, the binding result is recorded as “no binding”.

With B16, the binding result was “no binding”.

On to B17, for which the binding result is given as “no binding”.

On to B18, for which the binding result is reported as “no binding”.

Consider B19, for which the binding result is “no binding”.

As for B20, the binding result was “no binding”.

Take B21: the binding result is “no binding”.

Another test concerns the target T2, hu IGF-1R(ECD)-C3-muIgG1Fc (human; mouse, Glycosylated. 60% of the preparation was cleaved between the alpha and beta chains (RKRR, mature positions 708-711), which stay disulfide-linked; 40% was unprocessed. Dimer through the …).
T2 construct: 60% of the product was processed into α and β chains, 40% unprocessed; also called IGF-1R(ECD)-C3-muFc; IGF-1R-C3-muFc
In words: phage Fab ELISA, plate coated with IGF-1R-C3-mFc at 5 µg/ml. The procedure:
as §1, §2
In the case of B1, the binding result is “binds”.

On to B2, for which the binding result was “binds”.

With B3, the binding result was “binds”.

For the molecule B4, the binding result is recorded as “binds”.

Turning to B5, the binding result was “binds”.

Consider B6, for which the binding result was “binds”.

Consider B7, for which the binding result is “binds”.

With B8, the binding result is listed as “binds”.

For B9, the binding result was “binds”.

For B10, the binding result was “binds”.

Take B11: the binding result was “binds”.

B12: the binding result is listed as “binds”.

Regarding B13, the binding result was “binds”.

B14: the binding result is recorded as “binds”.

For the molecule B15, the binding result is reported as “binds”.

B16: the binding result was “binds”.

For B17, the binding result is recorded as “binds”.

On to B18, for which the binding result was “binds”.

As to B19, the binding result is given as “binds”.

Take B20: the binding result is on record as “binds”.

As for B21, the binding result was “binds”.

Values taken from US20140037642A1 (Amgen, published 2014).
